How the values were obtained:
[1] = molecular target: Cep63 (424–541)•Cep152 (1205–1295) heterotetrameric complex (human) (UniProt O94986); test: AUC; sedimentation equilibrium, 4 °C, pH 5.5 (150 mM NaCl, 50 mM citric acid/sodium citrate, 1 mM TCEP, 5% glycerol); 12.6, 25 and 55 µM fitted globally; reversible tetramer–octamer–hexadecamer model (heterotetramer to octamer, octamer to hexadecamer)
Cep152 (1205–1295) = molecular target: T1, Cep152 (1205–1295) (human, UniProt O94986-3 1205-1295); test: heterotetramer formation (2:2), iSCAMS; printed as <~60 nM
T1 chain: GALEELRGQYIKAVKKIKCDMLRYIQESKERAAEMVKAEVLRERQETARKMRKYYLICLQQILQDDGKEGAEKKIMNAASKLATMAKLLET

[2] = molecular target: the molecule itself; test: SEC-MALS; Cep63 (440–490), Wyatt SEC-MALS system
[3] = molecular target: the molecule itself; test: SEC; SEC elution of Cep63 (440–490) triple mutants (Supplementary Fig. 3d)
[4] = molecular target: His-Cep63 (424–541) (human); test: AUC; sedimentation velocity, 50,000 rpm, 4 °C, 150 mM NaCl, 20 mM Tris pH 8.0, 0.5 mM TCEP, 5% glycerol

Cep63 (424–541)•Cep152 (1205–1295) heterotetrameric complex (from UniProt O94986-3 1205-1295)
Kd, octamer–octamer interaction (octamer–hexadecamer step) [1]: 2.2 µM
Kd, tetramer–tetramer interaction (tetramer–octamer step) [1]: 370 µM
k16 (dissociation constant of the hexadecamer into four tetramers, c4^4/c16) [1]: 3e-13 M^3
stoichiometry N (heterotetramers in the oligomer) [1]: 4

B1: His-Cep63 (424–541) (domain or fragment)
chain: LHQRDITIASTKGSSSDMEKRLRAEMQKAEDKAVEHKEILDQLESLKLENRHLSEMVMKLELGLHECSLPVSPLGSIATRFLEEEELRSHHILERLDAHIEELKRESEKTVRQFTALK
Kd (Cep152 (1205–1295)): < 0.06 µM

B2: Cep63 (440–490) (domain or fragment, human, UniProt Q96MT8 440-490, looked up)
chain: DMEKRLRAEMQKAEDKAVEHKEILDQLESLKLENRHLSEMVMKLELGLHEA
notes: Cep63, human, residues 440–490; The structure was phased by SAD; also called Cep63 (440–490) WT; Cep63 (440–490) dimer; source: E. coli BL21(DE3) RIL, purified (Ni-NTA, TEV digestion, Sephacryl S-100 HR SEC); selenomethionine-substituted protein from E. coli B834(DE3); not shown: (His)6, N-terminal, cleaved; MBP, N-terminal, cleaved
stoichiometry N [2]: 2

B3: Cep63 (440–490) (L445A, A456K, L463K) (domain or fragment, human, UniProt Q96MT8 440-490, looked up)
chain: DMEKRARAEMQKAEDKKVEHKEIKDQLESLKLENRHLSEMVMKLELGLHEA
notes: Cep63, human, residues 440–490 with L445A, A456K, L463K; also called AKK; pKM6657; source: E. coli BL21(DE3) RIL, purified (Ni-NTA, TEV digestion, Sephacryl S-100 HR SEC); not shown: (His)6, N-terminal, cleaved; MBP, N-terminal, cleaved
binding result [3]: binds

B4: Cep152 (1205–1295) (domain or fragment)
chain: GALEELRGQYIKAVKKIKCDMLRYIQESKERAAEMVKAEVLRERQETARKMRKYYLICLQQILQDDGKEGAEKKIMNAASKLATMAKLLET
stoichiometry N (Cep63:Cep152 ratio (2:2)) [4]: 1

Source: paper PMC10336005, “Architectural basis for cylindrical self-assembly governing Plk4-mediated centriole duplication in human cells” (Communications Biology, 2023)
